Entries after “also recorded” stand apart in the source; their conditions may differ.
B1: SEQ ID NO: 114: PPO from Trichoderma sp. fused to cTP. Chimeric Protein; cloned from SEQ ID NO: 96 (protein, listed as Trichoderma sp.)
chain: MELSLLRPTTQSLLPSFSKPNLRLNVYKPLRLRCSVAGGMSLKRADGAAMAFLRLSSAVCGRRRIPAGGLPADANVAVLGGGLTGLTTAYYLAKWLPPTAKITLLEASDRLGGWIKTDRVPVKVGGVEGVVSFERGPRSLSSLNKSTWRFDDLVLWDLALDLGLRVVSPPDKPRYIYYPDHLVPLPPHTSLAAFASEPLVLESLWAGFGYVLRRLFSRKAGVPVQDLSIADWIQHITGSRAVAENLASAMVHGIYGGDIYTLSARSVLDRFYWVHYLPALGPDVRHMALSEQVFMEAMGQDPLIRKLAQQPRGALLNFGEAGMETLPIALADALNGQANVEVKLGAKVTGLEYESETEMMKITTTGQDDSPAEKYHKVISTLPSQHLARITDTLPSLASSHAVSIMTVNIWYPQTNLKPPGFGYLIPLSVPAEQNPERALGVFFDSDVGVRGPDEPAGTKLFVLMGGHYYDKKQPGASVRVPSEEEAIEQAKRVLERHLGIPQSTPCFAMARLASECIPQYVCGHQDTMAAADEDLRDSFDGRLAVAGGSYTKIGAMGALRNGYDIANTVVREDWLTTGLEQLEFPTQFCGVPTERIPVRRFSRR
B2: SEQ ID NO: 115: PPO from Rhodotorula sp. fused to cTP. Chimeric Protein; cloned from SEQ ID NO: 97 (protein, listed as Rhodotorula sp.)
chain: MELSLLRPTTQSLLPSFSKPNLRLNVYKPLRLRCSVAGGMQSYSGNALARQSVPIKPIRRRTPRLNLIRSLPSPRFFVTSPSSSQRHDHPYHTLAILGGGLSGLSTAHYFLRTLSPSLRDQTRIVVLEKEERVGGWCRAVRIQNGRRLGENEKPEGTEDLLVFETGPRSVRPVGLLGWLTIEMAHELGLTPSIVTVPKSAPSARNRFIYTGHRSSTSISPILKAALPTIPSALLEPFRPRSPLHDDPSGLADESVDSFIARRFGRRLADELASAGIHGIYAGDTRRLSVRAVLPALWELEKEWGSVVIGALFGSFARRRGWKKNSPWRMRQQAETEEMERVKERIRAKGGEALVEDMEKASVWGVKGGLQVVTETLREKLEAEGVEFWMGEKGKVEHVEKVDGGWQIRTSSGALDASQLVTTIPQLLPSSLAPPALPATTVSVVNLAFEKPAPGSPPLHPAGFGYLIPRTVPSSLNPHRALGVIFDSDVMPDVDSSSSLGLTKLSLLLGGSYWLDRHPPPQPSHDDLVNAALETLRLHFPDRPIPKPVHAFTHTHVNCIPQVPPGFMPSFRAFGDRLREAGNVAVVGGGFAAVGVNGCVKAAWEVGSAMAQAVNAQAGGKEGEGEEKVREAVARTVKTGTEMWEL
B3: SEQ ID NO: 112: PPO from Penicillium sp. fused to cTP. Chimeric Protein; cloned from SEQ ID NO: 94 (protein, listed as Penicillium sp.)
chain: MELSLLRPTTQSLLPSFSKPNLRLNVYKPLRLRCSVAGGMRLLTASKGLRSPQKPLISAIRCQHRSYNAAVIGGGITGLTAAWQLIQDRECSSVTIYEKSRRLGGWLQSETIPVEGGEVVFEYGPRTLRSAMPASLPLLYLVSNLGLFDELITTSKRSPAALNRYIYYPDHLVRLPTPDPDLSLMENARNIFRTITTEPLFEGFITGLLSEPNKPARPQEEWAIDESLAEFITRRFNRKIADNLVSAVMHGIYADNIDEMSAQAIMGPLRNLEDGGILFGLLIKSIMGKKTRSMDDFLAVDAVYKTPETMQRLDEINRVVKTASTFTFKRGTQQLVEGLTRALRASEKVRLVMDADILALDPPANRGHKLKIYTGIRGEESFDHVISAISAPAMARILDPQGQVKIDCDPEDEYRALWNSKKARHPKPNIGTVSGLHFFRHATTVMVVNLYYKTPNLLPVDGFGYLIPRSIPYEQNPECGLGVIFASASSSGESPVAPYPKVSQDSAPGTKITIMFGGHYWDGWKKQDYPDHKTAVRMAKDMLERHLGITEPPALVRTRLQENAIPKYKPPHIHQIYALSRWAKEEYHNRLVLVGNSFSGVGVGDCVRQGIMAATHGVGRHKLTATPRLESKDWCPWKEYNYQHWDLKGGVPTAPVRLFESDI
B4: SEQ ID NO: 116: PPO from Hesseltinella sp. fused to cTP. Chimeric Protein; cloned from SEQ ID NO: 98 (protein, listed as Hesseltinella sp.)
chain: MELSLLRPTTQSLLPSFSKPNLRLNVYKPLRLRCSVAGGMPRSIVVLGGGISGLSAAYYLSRLVPQAHIRLIESNKRAGGFIKTQQVNDHLIFEAGPRTLRPHGTSGTVLLDMIKDLDLSPLLVNIPKSHPSAQHRYIEYHGQINQLPSGLADMLLHSPPIMDSVITAGMREPFLARASTTKDESLYNFMERRFNEHTALNLMGAMAHGIYAGDAKQLSVHSTFPILAACEQEYGSVVLGMLSGKLSVESPRERQLADACRAKDPEWFKQMQQSSVLGFLPGLGALPSRLTQFLSSQPNVSMQLGETVSRLDGQSSHQIEITTSQGQIYHADHIVSTLPSHALARISMPTTTSLPHLTHNPSADVALVNLAYEKCKVKPGLDGFGFLTPHADTMPPSQFPGLLGMIFDSNSLGVQDQDSNMVRFTAMIGGADWNLAFGSLHDNDAISSKALTMATAALSKYLEIHESPAHYHCRILRQCIPQYLVGHRQRMNELHAALQHSFGHTMSVTGASYLGVSVPDCIKHSRMLIEDLVDTGALGSKQAVITGLEKVTLPMYYKL
B5: SEQ ID NO: 103: Nicotiana tabacum protoporphyrinogen oxidase, mitochondrial, NP_001312887.1 (protein, listed as Nicotiana tabacum)
chain: MAPSAGEDKHSSAKRVAVIGAGVSGLAAAYKLKIHGLNVTVFEAEGKAGGKLRSVSQDGLIWDEGANTMTESEGDVTFLIDSLGLREKQQFPLSQNKRYIARNGTPVLLPSNPIDLIKSNFLSTGSKLQMLLEPILWKNKKLSQVSDSHESVSGFFQRHFGKEVVDYLIDPFVAGTCGGDPDSLSMHHSFPELWNLEKRFGSVILGAIRSKLSPKNEKKQGPPKTSANKKRQRGSFSFLGGMQTLTDAICKDLREDELRLNSRVLELSCSCTEDSAIDSWSIISASPHKRQSEEESFDAVIMTAPLCDVKSMKIAKRGNPFLLNFIPEVDYVPLSVVITTFKRENVKYPLEGFGVLVPSKEQQHGLKTLGTLFSSMMFPDRAPNNVYLYTTFVGGSRNRELAKASRTELKEIVTSDLKQLLGAEGEPTYVNHLYWSKAFPLYGHNYDSVLDAIDKMEKNLPGLFYAGNHRGGLSVGKALSSGCNAADLVISYLESVSTDSKRHC
B6: SEQ ID NO: 94: PPO from Penicillium sp. Protein. (protein, listed as Penicillium sp.)
chain: MRLLTASKGLRSPQKPLISAIRCQHRSYNAAVIGGGITGLTAAWQLIQDRECSSVTIYEKSRRLGGWLQSETIPVEGGEVVFEYGPRTLRSAMPASLPLLYLVSNLGLFDELITTSKRSPAALNRYIYYPDHLVRLPTPDPDLSLMENARNIFRTITTEPLFEGFITGLLSEPNKPARPQEEWAIDESLAEFITRRFNRKIADNLVSAVMHGIYADNIDEMSAQAIMGPLRNLEDGGILFGLLIKSIMGKKTRSMDDFLAVDAVYKTPETMQRLDEINRVVKTASTFTFKRGTQQLVEGLTRALRASEKVRLVMDADILALDPPANRGHKLKIYTGIRGEESFDHVISAISAPAMARILDPQGQVKIDCDPEDEYRALWNSKKARHPKPNIGTVSGLHFFRHATTVMVVNLYYKTPNLLPVDGFGYLIPRSIPYEQNPECGLGVIFASASSSGESPVAPYPKVSQDSAPGTKITIMFGGHYWDGWKKQDYPDHKTAVRMAKDMLERHLGITEPPALVRTRLQENAIPKYKPPHIHQIYALSRWAKEEYHNRLVLVGNSFSGVGVGDCVRQGIMAATHGVGRHKLTATPRLESKDWCPWKEYNYQHWDLKGGVPTAPVRLFESDI

System: Arabidopsis plants
Conditions: for rank among fungal isolated-PPO genes for growth in the presence of Strike, Star, Goal and Aurora: Strike 2.5, Star 1.25, Goal 1.15, Aurora 1.0 kg/hectare; for herbicides against which tolerance was shown: FIG. 3C, Strike, Star, Goal, Aurora tested; for High concentration herbicide tolerance: Table 1

Molecule	rank among fungal isolated-PPO genes for growth in the presence of Strike, Star, Goal and Aurora	herbicides against which tolerance was shown	High concentration herbicide tolerance (yes/no)	further results
B1	top 3	–	–	–
B2	top 3; also recorded: top 2	–	–	–
B3	–	tolerances against Goal and Star herbicides only	–	–
B4	–	tolerances against Goal and Star herbicides only	–	–
B5	–	–	no	–
B6	–	–	yes	Herbicide tolerance (Table 2, yes/no, FIG. 6C legend: Star 1.25 kg/hectare): yes

— patent publication US12674174B2, “Protoporphyrinogen oxidase (PPO) resistance plant” (PLANTARC BIO LTD., priority 2022, dated 2026)
